Test: yeast display, Sf9 membrane polyspecificity reagent, FACS + sequencing; frameworks hold sequencing errors
Summary of the method: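 In a synthetic yeast display library (Saccharomyces cerevisiae BJ5465), nanobody expression was induced with galactose for 36–48 hours. FACS gates were set low and high (top ~1%) using anti-HA fluorescence for expression and streptavidin fluorescence for binding of the Sf9 membrane reagent. Each polyreactivity label is drawn from the gate of origin.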

Sequence | polyreactivity (PSR sort gate)
QVQLVESGGGLVQAGGSLRLSCAASGFIFVYYAMGWYRQAPGKERELVAAISRASSTSYADSVKGRFTISRDNAKNTVYLQMISLKPEDTAVYYCAAVYYGGFSDYDYWGQGTQVTVSS | low polyreactivity
QVQLVESGGGLVQAGGSLRLSCAASGFIFVYYAMGWYRQAPGKERELVAAITWRGGSTNYADSVKGRFTISRDNAKNTVYLQMNSLIPEDTAVYYCAAYSVWGGSYLALDYWGQGSQVTVSS | low polyreactivity
QVQLVESGGGLVQAGGSLRLSCAASGFIFVYYVMGWYRQAPGKERELVAAITQSGGSTYYADSVKGRFTISRDNAKNTVYLQMNSLKPEDTAVYYCAAYRRTTGGGYDYWGQGTQVTVSS | high polyreactivity
QVQLVESGGGLVQAGGSLRLSCAASGFIFVYYVMGWYRQAPGKERELVAAITQSGGSTYYADSVKGRFTISRDNAKYTVYLQMNSLKPEDTAVYYCAAYRRTTGGGYDYWGQGTQVTVSS | high polyreactivity
QVQLVESGGGLVQAGGSLRLSCAASGFIFWANAMGWYRQAPGKERELVAAITWRNGRTYYADSVKGRFTISRDNAKNTVYLQMNSLKPEDTAVYYCAAPGSYARGTGRDYWGQGTQVTVSS | high polyreactivity
QVQLVESGGGLVQAGGSLRLSCAASGFIFWAYAMGWYRLAPGKERELVAAITWNGGSTNYADSVKGRFTISRDNAKNTVYLQMNSLKPEDTAVYYCAVSRSLSFRYPGYYWGQGTQVTVSS | low polyreactivity
QVQLVESGGGLVQAGGSLRLSCAASGFIFWAYDMGWYRQAPGKERELVAGISKRGGTTYYADSVKGRFTISRDNAKNTVYLQMNSLKPEDTAVYYCAVRLYLEMDYWGQGTQVTVSS | high polyreactivity
QVQLVESGGGLVQAGGSLRLSCAASGFIFWDYAMGWYRQAPGKERELVAAISDSGGDTYYADSVKGRFTISRDNSKNTDYLQMNSLKPEDTAVYYCAADVELWVFRGQQYDYWGQGTQVTVSS | low polyreactivity
QVQLVESGGGLVQAGGSLRLSCAASGFIFWENAMGWSRQAPGKERELVAAISKSGTRTYYADSVKGRFTISRDNAKNTVYLQMNSLKPEDTAVYYCAAEGSGYEYYYWGQGTQVTVSS | high polyreactivity
QVQLVESGGGLVQAGGSLRLSCAASGFIFWKNAMGWYRQAPGKERELVAAISWSGGRTYYADSVKGRFTISRDNAKNTVYLQMNSLKPEDTGVYYCDASVGPFPVRGDYWGQGTQVTVSS | low polyreactivity
QVQLVESGGGLVQAGGSLRLSCAASGFIFWKYAKGWYRQAPGKERELVAAISTTGGSTYYADSVKGRFTNSRDNAKNTVYLQMNSLKPEDTAVYYCAAQVGRGYEVYPVYKYGYWGQGTQVTVSS | high polyreactivity
QVQLVESGGGLVQAGGSLRLSCAASGFIFWRNAMGWDRQAPGKDRELVATISRSGGSTYYADSVKGRFTISRDTAKNTVYLQMNSLKPEDTAVYYCATVPWYYWGTHRTLYDYWGQGTQVTVSS | high polyreactivity
QVQLVESGGGLVQAGGSLRLSCAASGFIFWSYAMGWYRQAPGKERELVAAIDLTGGSTYYADSVKGRFTISRDNAKNTVYFQMNSLKPEDTAVYYCNADGDTYAFTNSDSGFDYWGQGTQVTVSS | low polyreactivity
QVQLVESGGGLVQAGGSLRLSCAASGFIFWSYAMGWYRQAPGKERELVAVITSGASTYYADSVKGRFTISRDNAKNTVYLQMNSLKPEDTAVYYSAAEYWVPAWKFGYEYWGQGTQVTVSS | high polyreactivity
QVQLVESGGGLVQAGGSLRLSCAASGFIFWTNTMGWYRQAPGKERELVAAISRSGGSTYYADSVKGRFTISRDNAKNTVYLQMNSLKPEDTAVYYCAKGYRGYSYGYWGQGTQVTVSS | high polyreactivity
QVQLVESGGGLVQAGGSLRLSCAASGFIFWVYALGWYRQAPGKERELVAAITSGGGSTYYADSVKGRFTISRDNAKNSVYLQMNSLKPEDTAVYYCNSVSWEGYDFDYWGQGTQVTVSS | high polyreactivity
